According to patent publication US20190359687A1 (Bayer, published 2019):
Substitutions are numbered along the chain they refer to.

T1: human glycophorin A on human red blood cells or red blood cell membranes (human, UniProt P02724 20-150)
T1 construct: whole, on cells; also called hRBC; human RBC membranes
T1 sequence (looked up): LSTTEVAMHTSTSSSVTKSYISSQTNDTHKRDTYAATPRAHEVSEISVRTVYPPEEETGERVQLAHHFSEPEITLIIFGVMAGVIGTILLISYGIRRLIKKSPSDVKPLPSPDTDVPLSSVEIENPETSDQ

B1: TPP-7781, affinity matured 6C12 Fab (Fab, V domains shown)
VH: EVQLVQSGAEVKKPGASVKVSCKASGYTFTTYTIHWVRQAPGQGLEWMGYINPKSGWTRYNPKFKGRVTMTRDKSTSTAYMELRSLRSDDTAVYYCQTGTRDYWGQGTTVTVSS
VL: DIQLTQSPSFLSASVGDRVTITCRASSSVRYIYWFQQKPGKAPKLLIYATSTLQSGVPSRFSGSGSGTEYTLTISSLQPEDFATYYCHQRNSFPYTFGQGTKLEIK
notes: Tested as Fab
B2: TPP-7796, affinity matured 6C12 Fab (Fab, V domains shown)
VH: B1 VH
VL: B1 VL with R30S
notes: Tested as Fab
B3: TPP-7782, affinity matured 6C12 Fab (Fab, V domains shown)
VH: B1 VH with K54S, W57Y
VL: B1 VL with T52F, L53R
notes: Tested as Fab
B4: TPP-7793, affinity matured 6C12 Fab (Fab, V domains shown)
VH: B1 VH with T31R, K54S, W57Y, Q97W
VL: B1 VL with R30S
notes: Tested as Fab
B5: TPP-7792 scFv with C-terminal 6xHIS tag (scFv)
scFv: DIQLTQSPSFLSASVGDRVTITCRASSSVRYIYWFQQKPGKAPKLLIYATSFRQSGVPSRFSGSGSGTEYTLTISSLQPEDFATYYCHQRNSFPYTFGQGTKLEIKGGGGSGGGGSGGGGSGGGGSEVQLVQSGAEVKKPGASVKVSCKASGYTFTTYAIHWVRQAPGQGLEWMGYINPSSGYTRYNPKFKGRVTMTRDKSTSTAYMELRSLRSDDTAVYYCWTGTRDYWGQGTTVTVSSHHHHHH
B6: TPP-7778 scFv with C-terminal 6xHIS tag (scFv)
scFv: B5 scFv with F52T, R53L, G192H, W223Q
B7: TPP-7782 scFv with C-terminal 6xHIS tag (scFv)
scFv: B5 scFv with A159T, W223Q
B8: TPP-7781 scFv with C-terminal 6xHIS tag (scFv)
scFv: B5 scFv with F52T, R53L, A159T, S180K, Y183W, W223Q
B9: TPP-7783 scFv with C-terminal 6xHIS tag (scFv)
scFv: B5 scFv with Q54R, G192H

molecular target: T1, human glycophorin A on human red blood …; assay: SPR (Biacore), Fab on human RBC membranes; * not accurate, instrument limit;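 as to kd: human RBC membranes captured on an L1 sensor chip, Fab fragments passed over as analyte, binding kinetics read by surface plasmon resonance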;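 as to koff: human RBC membranes captured on an L1 sensor chip, Fab fragments passed over as analyte, binding kinetics read by surface plasmon resonance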
Procedure: (§1) Kinetic analysis of the antibody binding to human red blood cell membranes was also performed using surface plasmon resonance (SPR) using a Biacore instrument. In this assay membranes prepared from human red blood cells were attached to a L1 sensor matrix and antibodies were flowed over the RBC membranes.
(§2) The binding kinetics of the affinity matured Fab antibodies was also measured.

Binder | kon
B1 | 1.89e+07 M⁻¹ s⁻¹
B2 | 2.15e+07 M⁻¹ s⁻¹
B3 | 1.4e+07 M⁻¹ s⁻¹
B4 | 2.05e+07 M⁻¹ s⁻¹

molecular target: T1, human glycophorin A on human red blood …; assay: Fab on intact human RBC, unbound Fab by ELISA; 0 min after 200-fold dilution

Binder | percentage of input antibody bound
B1 | 93%
B2 | 82%
B3 | 95%
B4 | 96%

molecular target: T1, human glycophorin A on human red blood …; assay: scFv on intact human RBC, unbound scFv by ELISA; 5 min after 200-fold dilution
Procedure: (§3) RBC diluted to 1/10th of normal hematocrit were incubated with the set of “Top 10” purified scFv antibodies at a final concentration of 7 ug/ml for 1 hour at room temperature on a rotating shaker after which a sample was taken and the RBC were pelleted by centrifugation and the supernatant was collected. The remaining RBC suspension was diluted 200-fold in PBS buffer and incubated for a total of 2 hours at room temperature on a rotating shaker and samples were removed at 0, 5 min, 20 min, 1 h and 2 h and the RBC pelleted and the supernatant collected. […] The percentage that remains bound after dilution is an indication of the overall strength of the binding to human RBC.

Binder | percentage of input scFv antibody bound
B5 | 99%
B6 | 88%
B7 | 91%
B8 | 94%
B9 | 94%

molecular target: T1, human glycophorin A on human red blood …; assay: Fab on intact human RBC, unbound Fab by ELISA; 60 min after 200-fold dilution
Procedure: (§4) The binding of affinity matured Fab antibodies to intact human RBC was also measured. Human RBC were isolated from fresh anti-coagulated normal human blood by centrifugation through a ficol gradient and washing in PBS buffer. RBC diluted to 1/10th of normal hematocrit were incubated with purified Fab antibodies at a final concentration of 7 ug/ml for 1 hour at room temperature on a rotating shaker after which a sample was taken and the RBC were pelleted by centrifugation and the supernatant was collected. The remaining RBC suspension was diluted 200-fold in PBS buffer and incubated for a total of 2 hours at room temperature on a rotating shaker and samples were removed at 0, 5 min, 20 min, 1 h and 2 h and the RBC pelleted and the supernatant collected. The amount of Fab in the supernatants was then measured using an ELISA assay and the results used to calculate the percentage of the input Fab that was bound to the RBC. […] The percentage that remains bound after 200-fold dilution of the RBC suspension is an indication of the overall strength of the binding to human RBC.

Binder | percentage of input antibody bound
B1 | 64%
B2 | 15%
B3 | 79%
B4 | 85%

molecular target: T1, human glycophorin A on human red blood …; assay: Fab on intact human RBC, unbound Fab by ELISA; 120 min after 200-fold dilution

Binder | percentage of input antibody bound
B1 | 59%
B2 | 13%
B3 | 77%
B4 | 86%

molecular target: T1, human glycophorin A on human red blood …; assay: scFv on intact human RBC, unbound scFv by ELISA; 0 min after 200-fold dilution
Procedure: as §3

Binder | percentage of input scFv antibody bound
B5 | 100%
B6 | 97%
B7 | 92%
B8 | 97%
B9 | 94%

molecular target: T1, human glycophorin A on human red blood …; assay: scFv on intact human RBC, unbound scFv by ELISA; 20 min after 200-fold dilution
Procedure: as §3

Binder | percentage of input scFv antibody bound
B5 | 98%
B6 | 81%
B7 | 87%
B8 | 93%
B9 | 94%

molecular target: T1, human glycophorin A on human red blood …; assay: SPR (Biacore), Fab on human RBC membranes; T½ = 0.69/kd;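 as to kd: human RBC membranes captured on an L1 sensor chip, Fab fragments passed over as analyte, binding kinetics read by surface plasmon resonance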
Procedure: as §1, §2

Binder | Estimated T½
B1 | 21 min
B2 | 5 min
B3 | 28 min
B4 | 23 min

molecular target: T2, Cynomolgus monkey glycophorin A on Cynomolgus monkey red blood cells or red blood cell membranes (Cynomolgus monkey); assay: Fab 7 ug/ml on intact cyno RBC, unbound Fab by ELISA; pre-dilution
T2 construct: whole, on cells; also called Cyno RBC; Cynomolgus monkey RBC membranes
Procedure: (§5) The binding of affinity matured Fab antibodies to intact Cynomolgus monkey RBC was measured. Cynomolgus monkey RBC were isolated from fresh anti-coagulated blood by centrifugation through a ficol gradient and washing in PBS buffer. RBC diluted to 1/10th of normal hematocrit were incubated with the Fab at a final concentration of 7 ug/ml for 1 hour at room temperature on a rotating shaker after which a sample was taken and the RBC were pelleted by centrifugation and the supernatant was collected. The remaining RBC suspension was diluted 200-fold in PBS buffer and incubated for a total of 2 hours at room temperature on a rotating shaker and samples were removed at 0, 5 min, 20 min, 1 h and 2 h and the RBC pelleted and the supernatant collected. […] The amount of Fab in the supernatants was then measured using an ELISA assay and the results used to calculate the percentage of the input Fab that was bound to the RBC.

Binder | percentage of input antibody bound
B1 | 86%
B2 | 68%
B3 | 94%
B4 | 72%

molecular target: T1, human glycophorin A on human red blood …; assay: SPR (Biacore), Fab on human RBC membranes;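 also: human RBC membranes captured on an L1 sensor chip, Fab fragments passed over as analyte, binding kinetics read by surface plasmon resonance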
Procedure: as §1, §2

Binder | Kd | koff
B1 | 28.9 pM | 0.000547 s⁻¹
B2 | 111 pM | 0.00238 s⁻¹
B3 | 29.5 pM | 0.000413 s⁻¹
B4 | 24.6 pM | 0.000504 s⁻¹

molecular target: T2, Cynomolgus monkey glycophorin A on …; assay: Fab on intact cyno RBC, unbound Fab by ELISA; 20 min after 200-fold dilution
Procedure: as §5

Binder | percentage of input antibody bound
B1 | 32%
B2 | 21%
B3 | 59%
B4 | 51%

molecular target: T1, human glycophorin A on human red blood …; assay: Fab 7 ug/ml on intact human RBC, unbound Fab by ELISA; pre-dilution
Procedure: as §4

Binder | percentage of input antibody bound
B1 | 97%
B2 | 96%
B3 | 99%
B4 | 98%

molecular target: T2, Cynomolgus monkey glycophorin A on …; assay: Fab on intact cyno RBC, unbound Fab by ELISA; 60 min after 200-fold dilution
Procedure: as §5

Binder | percentage of input antibody bound
B1 | 24%
B2 | 7%
B3 | 57%
B4 | 51%

molecular target: T1, human glycophorin A on human red blood …; assay: scFv on intact human RBC, unbound scFv by ELISA; 60 min after 200-fold dilution
Procedure: as §3

Binder | percentage of input scFv antibody bound
B5 | 95%
B6 | 79%
B7 | 89%
B8 | 93%
B9 | 94%

molecular target: T2, Cynomolgus monkey glycophorin A on …; assay: Fab on intact cyno RBC, unbound Fab by ELISA; 5 min after 200-fold dilution
Procedure: as §5

Binder | percentage of input antibody bound
B1 | 34%
B2 | 43%
B3 | 68%
B4 | 58%

molecular target: T2, Cynomolgus monkey glycophorin A on …; assay: Fab on intact cyno RBC, unbound Fab by ELISA; 120 min after 200-fold dilution
Procedure: as §5

Binder | percentage of input antibody bound
B1 | 19%
B2 | 0%
B3 | 52%
B4 | 46%

molecular target: T1, human glycophorin A on human red blood …; assay: scFv 7 ug/ml on intact human RBC, unbound scFv by ELISA; pre-dilution
Procedure: as §3

Binder | percentage of input scFv antibody bound
B5 | 100%
B6 | 98%
B7 | 92%
B8 | 97%
B9 | 94%

molecular target: T2, Cynomolgus monkey glycophorin A on …; assay: Fab on intact cyno RBC, unbound Fab by ELISA; 0 min after 200-fold dilution
Procedure: as §5

Binder | percentage of input antibody bound
B1 | 40%
B2 | 56%
B3 | 88%
B4 | 58%

molecular target: T1, human glycophorin A on human red blood …; assay: Fab on intact human RBC, unbound Fab by ELISA; 20 min after 200-fold dilution

Binder | percentage of input antibody bound
B1 | 61%
B2 | 12%
B3 | 76%
B4 | 86%

molecular target: T1, human glycophorin A on human red blood …; assay: Fab on intact human RBC, unbound Fab by ELISA; 5 min after 200-fold dilution
Procedure: as §4

Binder | percentage of input antibody bound
B1 | 69%
B2 | 48%
B3 | 83%
B4 | 92%

molecular target: T1, human glycophorin A on human red blood …; assay: scFv on intact human RBC, unbound scFv by ELISA; 120 min after 200-fold dilution
Procedure: as §3

Binder | percentage of input scFv antibody bound
B5 | 92%
B6 | 76%
B7 | 85%
B8 | 92%
B9 | 94%
